The text below walks through data of patent EP3265123B1 (Kymab Limited, dated 2022).

Test [1] addresses T1, Recombinant Human OX40L (Leader sequence, Isoleucine Zipper and FLAG Sequence Included) (human).
T1 construct: In-house construct: extracellular domain of human OX40L with a FLAG motif and an isoleucine zipper to aid trimerisation; It was used biotinylated in the HTRF assays and unlabelled in SPR and the T-cell assay; also called hOX40L; biotinylated OX40L
In words: SPR (ProteOn XPR36), antibody captured on anti-mouse IgG, OX40L at 256 nM, 1:1 model, apparent affinity, 25 C.

The target of test [2] is T1, Recombinant Human OX40L (Leader …). In words: cell-based or functional assay.
The target is the same in test [3]. In words: HTRF ligand/receptor neutralisation, biotinylated hOX40L with OX40RFc-AF647 as competitor; mean of three experiments.

T1 sequence (chain, as listed by the source limits assumed): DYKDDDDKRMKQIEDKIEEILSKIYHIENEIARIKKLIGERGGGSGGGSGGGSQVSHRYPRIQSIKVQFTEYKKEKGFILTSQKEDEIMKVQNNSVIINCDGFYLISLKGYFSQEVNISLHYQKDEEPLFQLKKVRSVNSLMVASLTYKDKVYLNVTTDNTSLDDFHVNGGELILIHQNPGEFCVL

B1: 9H04 (hybridoma) (antibody, V domains shown)
VH: QVQLVESGGGLVKPGGSLRLSCAASRFTLSDYYMTWIRQAPGKGLEWVSYISSSGNTIYYADSVKGRFTISRDNAKNSLYLQMNSLRAEDTAVYYCARDLSGSYWDYYYGMDVWGQGTTVTVSS
VL: AIQLTQSPSSLSTSVGDRVTIACRASQGINNALAWYQQKPGKAPKLLIYDASSLESGVPSRFSGSGSGTDFTLTISSLQPEDFATYYCQQFNSYPRTFGQGTKVEIK
notes: Purified from hybridoma supernatant as a murine/human chimeric antibody (human variable domains, mouse constant regions); also called 09H04
Regarding B1, the Kd in test [1] is 5.3 nM.

B2: 2D10 (human) (antibody, human IgG4 S228P, kappa, V domains shown)
VH: EVQLVESGGGLVQPGGSLRLSCAASGFTFSNYAMNWVRQAPGKGLEWVSTISGSGGATRYADSVKGRFTISRDNSRNTVYLQMNSLRVEDTAVFYCTKDRLIMATVRGPYYYGMDVWGQGTTVTVSS
VL: DIQMTQSPSSLSASVGDRVTITCRASQSISSYLNWYQQKPGKAPNLLIYAASSLQSGVPSRFSGSGSETDFTLTISSLQPEDFATYYCQQSHSVSFTFGPGTKVDIKR
notes: Fully human recombinant IgG4-PE (Ser228Pro, Leu235Glu) with human kappa light chain, expressed in CHO-S; also called 02D10; 2D10 IgG4PE
In the case of B2, the “Primary T-cell Assay IC50 (recombinant OX40L induced IL2 release from primary human T-cells)” value in test [2] was 0.81 nM. Moreover, in test [3], the IC50 (in general, the midpoint of a concentration-inhibition curve) was 0.75 nM.

B3: 19H01 (hybridoma) (antibody, V domains shown)
VH: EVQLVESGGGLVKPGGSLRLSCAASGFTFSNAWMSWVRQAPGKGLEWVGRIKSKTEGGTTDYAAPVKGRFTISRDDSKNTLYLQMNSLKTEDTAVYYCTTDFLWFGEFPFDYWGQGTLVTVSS
VL: DIQMTQSPSSLSASVGDRVTITCRASQGISNYLAWYQQKPGKIPKLLIYAASTLQSGVPSRFSGSGSGTDFTLTISSLQPEDVATYYCQKYNSAPRTFGQGTKVEIK
notes: Purified from hybridoma supernatant as a murine/human chimeric antibody (human variable domains, mouse constant regions)
Consider B3, for which the Kd in test [1] was 2.2 nM.
